The target of the data set is human chorionic gonadotropin (hCG), alpha/beta heterodimer (Homo sapiens) (UniProt P01215+P0DN86). Conditions: hCG magnetic beads with qPCR, artificial urine; round 6 pool 2.54%, round 7 20.88%, round 8 22.85%.
Sequence of human chorionic gonadotropin (hCG), alpha/beta heterodimer (Homo sapiens) (P01215 25-116, chain 1 of 2, other chains not shown): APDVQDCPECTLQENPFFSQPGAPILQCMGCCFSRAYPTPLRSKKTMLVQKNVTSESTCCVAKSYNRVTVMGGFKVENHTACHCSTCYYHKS

Take “TCGCACATTCCGCTTCTACCNNNNNNNNNNNNNNNNNNNNNNNNNNNNNNNNNNNNNNNNCGTAAGTCCGTGTGTGCGAA [SELEX round 9 pool]”: the binding signal (% of input DNA bound) is 77.4.

The record behind these values is patent publication US20250347705.
